Experimental data taken from paper PMC4491180, “Grb2 monomer–dimer equilibrium determines normal versus oncogenic function” (Nature Communications, 2015).
Where no end group is shown, it is not given here. [ ]: non-standard residue; d: D form. pY = N[C@@H](Cc1ccc(OP(=O)(O)O)cc1)C(=O)O

Key:
[1] = biological target: T1, wild-type Grb2 (growth factor receptor-bound protein 2), bacterially expressed and purified (UniProt P62993 1-217, Atto488 on the N-terminus of the labelled copy (100 nM); the titrated copy unlabelled); assay: MST; monomer–dimer equilibrium of Grb2 in the presence of a saturating concentration of pShc peptide; conditions: both partners purified
T1 construct: cloned into a modified pET28a with a TEV site; also called ^WTGrb2; dGrb2

[2] = biological target: T2, bacterial GFP-tagged Grb2 on GFP-trap beads (smFLIM) (UniProt P62993 1-217); assay: FRET or BRET; smFLIM: GFP–Grb2 on GFP-trap beads, RFP–Grb2 added for 1 h, 20 mM Tris-HCl, 50 mM NaCl, pH 8.0; then 10 μM phospho-Shc peptide for an hour; conditions: both partners purified
T2 construct: full-length Grb2; The second copy (FRET acceptor, added in solution) carried RFP (mRFP) instead of GFP; By the order of the cloning sites the fluorescent protein lies before Grb2; pET28a cut at NdeI may add an N-terminal His tag (surmised); also called GFP–Grb2; RFP–Grb2; source: E. coli (pET28a construct)

binding result [1]: binds | binding result [2]: binds
B1: phospho-Shc peptide (peptide)
peptide: EEPPDHQ[pY]YNDFPGK
notes: Printed as EEPPDHQ(pY)YN-DFPGK; also called pShc; source: synthetic peptide, bought: GenScript
